Laboratory results reported in publication PMC9481538, “The interaction between LC8 and LCA5 reveals a novel oligomerization function of LC8 in the ciliary-centrosome system” (Scientific Reports, 2022).

How the values were obtained:
[1] = target: sLCA5-WT (LCA5 96-430 with N-terminal MBP and C-terminal 6xHis) (human (cDNA library from HEK293)) (UniProt Q86VQ0)
[2] = target: sLCA5-WT (LCA5 96-430 with N-terminal MBP and C-terminal 6xHis) (human (cDNA library from HEK293)) (UniProt Q86VQ0); test: ITC; MBP-fused LCA5 construct in the cell, LC8 injected, 37 injections of 1 μl; 37 °C, PBS pH 7.4, 1 mM TCEP
[3] = target: sLCA5-ΔCQS (human (cDNA library from HEK293)) (UniProt Q86VQ0); test: as above
sLCA5-ΔCQS (human (cDNA library from HEK293)), sequence (Q86VQ0 other isoform, or with tags, fused parts or gaps mutant): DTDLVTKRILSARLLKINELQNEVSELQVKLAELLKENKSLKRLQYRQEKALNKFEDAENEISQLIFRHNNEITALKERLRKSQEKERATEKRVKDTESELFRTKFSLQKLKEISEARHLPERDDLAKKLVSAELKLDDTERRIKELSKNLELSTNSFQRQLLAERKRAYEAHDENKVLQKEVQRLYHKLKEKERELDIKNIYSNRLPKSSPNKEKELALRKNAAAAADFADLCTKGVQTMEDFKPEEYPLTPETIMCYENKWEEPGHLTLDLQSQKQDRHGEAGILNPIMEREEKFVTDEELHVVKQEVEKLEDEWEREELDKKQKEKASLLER

[4] = target: sLCA5-ΔVQT (human (cDNA library from HEK293)) (UniProt Q86VQ0); test: as above
sLCA5-ΔVQT (human (cDNA library from HEK293)), sequence (Q86VQ0 other isoform, or with tags, fused parts or gaps mutant): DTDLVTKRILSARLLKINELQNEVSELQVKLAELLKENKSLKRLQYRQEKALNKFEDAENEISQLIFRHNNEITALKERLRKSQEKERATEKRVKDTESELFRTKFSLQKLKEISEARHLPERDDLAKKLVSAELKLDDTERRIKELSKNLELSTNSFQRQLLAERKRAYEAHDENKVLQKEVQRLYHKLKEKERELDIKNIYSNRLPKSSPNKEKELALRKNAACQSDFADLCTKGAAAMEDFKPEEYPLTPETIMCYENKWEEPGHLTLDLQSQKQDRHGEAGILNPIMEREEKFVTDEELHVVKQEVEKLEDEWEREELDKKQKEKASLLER

[5] = target: FITC-labelled BMF (Bcl-2-modifying factor) peptide (…); test: fluorescence polarisation; direct titration of 50 nM FITC-BMF peptide with LC8; 25 °C, PBS, 2 mM TCEP, 0.05% Brij
[6] = target: Dynein light chain LC8 (DYNLL2), 6xHis-tagged (UniProt Q96FJ2); test: SEC; Superose 6 Increase 10/300, DPBS with 200 μM TCEP; LC8 or sLCA5-WT alone; masses estimated from a calibration curve
[7] = target: sLCA5-WT (LCA5 96-430 with N-terminal MBP and C-terminal 6xHis) (human (cDNA library from HEK293)) (UniProt Q86VQ0); test: SEC; Superose 6 Increase 10/300, DPBS with 200 μM TCEP; 30 μM LCA5 construct with 150 μM LC8, injected immediately or after 60 min at 37 °C; fractions analysed by SDS-PAGE and densitometry
[8] = target: sLCA5-ΔCQS (human (cDNA library from HEK293)) (UniProt Q86VQ0); test: as above
[9] = target: sLCA5-ΔVQT (human (cDNA library from HEK293)) (UniProt Q86VQ0); test: as above

sLCA5-WT (LCA5 96-430 with N-terminal MBP and C-terminal 6xHis) (human (cDNA library from HEK293)), sequence (Q86VQ0 96-430): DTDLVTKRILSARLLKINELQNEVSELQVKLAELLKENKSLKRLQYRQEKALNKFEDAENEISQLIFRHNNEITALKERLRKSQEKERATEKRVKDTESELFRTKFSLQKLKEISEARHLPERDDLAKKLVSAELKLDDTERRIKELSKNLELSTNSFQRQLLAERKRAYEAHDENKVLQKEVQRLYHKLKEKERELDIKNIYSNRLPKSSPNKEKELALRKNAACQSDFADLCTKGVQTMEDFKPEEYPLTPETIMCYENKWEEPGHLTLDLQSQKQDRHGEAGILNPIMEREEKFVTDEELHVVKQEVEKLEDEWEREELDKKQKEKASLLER
Dynein light chain LC8 (DYNLL2), 6xHis-tagged (from UniProt Q96FJ2 1-89) (natural protein), sequence (Q96FJ2 whole entry): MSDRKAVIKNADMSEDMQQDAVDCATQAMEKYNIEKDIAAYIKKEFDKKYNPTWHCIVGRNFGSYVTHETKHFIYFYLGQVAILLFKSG

Substance: Dynein light chain LC8 (DYNLL2), 6xHis-tagged (from UniProt Q96FJ2 1-89) (natural protein)
- increase in the melting temperature of sLCA5-WT in complex with LC8 (CD thermal denaturation at 222 nm, 10-80 °C; 1.2 μM LCA5, 6 μM LC8) [1]: 5 °C
- dH [2]: -11.8 kcal/mol
- stoichiometry N [2]: 1 LCA5:LC8
- dH [3]: -8.62 kcal/mol
- stoichiometry N [3]: 2 LCA5:LC8
- dH [4]: -12.5 kcal/mol
- stoichiometry N [4]: 2 LCA5:LC8
- LC8 concentration at 80% saturation of the BMF peptide [5]: 12 µM
- stoichiometry N [6]: 2
- molar ratio LCA5:LC8 in the LCA5 peak [7]: 1 LCA5:LC8
- molar ratio LCA5:LC8 in the intermediate fraction [7]: 1 LCA5:LC8
- molar ratio sLCA5:LC8 in the oligomeric (void) fraction [7]: 0.5 LCA5:LC8
- molar ratio LCA5:LC8 in the LCA5 peak [8]: 2 LCA5:LC8
- molar ratio sLCA5:LC8 in the oligomeric (void) fraction [8]: 1 LCA5:LC8
- molar ratio LCA5:LC8 in the earlier eluted part of the LCA5 peak [9]: 2 LCA5:LC8
- molar ratio LCA5:LC8 in the later part of the LCA5 peak [9]: 1 LCA5:LC8
